How the values were obtained:
[1] = Plasma stability analysis, mouse plasma; settings: plasma, BTCs
Cathepsin B = Cathepsin B (Homo sapiens, UniProt P07858); assay: Cathepsin B (CatB) cleavage assay; assay type: biochemical; settings: BTCs
[2] = rat
HT1080 cells = settings: 1 mg/kg and 3 mg/kg
Method: For Cell-Derived Xenograft (CDX) models, mice (balb/c nude, female, 18-23 g at study start) were inoculated with HT1080 cells (5.0×10^6 cells/mouse in 0.2 ml PBS to the right flank). Animals were randomized when the average tumour volume reached the pre-designated start size. Group size is n=4. All studies included a vehicle-treated control.
Dosing was conducted by intravenous bolus. Tumor volume was measured in two dimensions using a caliper, and the volume was expressed in mm^3 using the formula: V=0.5 a×b^2 where a and b are the long and short diameters of the tumor, respectively.

in vivo [3] = settings: male, CD-1, mouse, plasma, intravenous
Method: Male CD-1 mice were dosed with each Bicycle Conjugate formulated in 25 mM histidine HCl, 10% sucrose pH 7 via tail vein injection. Serial bleeding (about 80 μL blood/time point) was performed via submadibular or saphenous vein at each time point. All blood samples were immediately transferred into prechilled microcentrifuge tubes containing 2 μL K2-EDTA (0.5M) as anti-coagulant and placed on wet ice. Blood samples were immediately processed for plasma by centrifugation at approximately 4° C., 3000 g. The precipitant including internal standard (350 μL) was immediately added into the 35 μL plasma sample, mixed well and centrifuged at 3220 g, 4° C. for 15 minutes. The supernatant was transferred into pre-labeled polypropylene microcentrifuge tubes, and then quick-frozen over dry ice. The samples were stored at 70° C. or below as needed until analysis. Supernatant samples were mixed with 50 μL water, vortexed well and centrifuged at 3220 g, 4° C. for 15 minutes. A sample of the supernatant was injected for LC-MS/MS analysis using an Acquity UPLC with AB Sciex 6500+ Triple Quad MS in positive ion mode to determine the concentrations of Bicycle Conjugate and released payload. Plasma concentration versus time data were analyzed by non-compartmental approaches using the Phoenix WinNonlin 6.3 software program. C0, Cl, Vdss, T1/2, AUC(0-inf), MRT(0-last), MRT(0-inf) nd graphs of plasma concentration versus time profile were reported.

in vivo [4] = settings: rat, plasma
in vitro [5] = settings: rat, plasma, pH 7.4
Method: (§1) Pooled frozen plasma was thawed in a water bath at 37° C. Plasma was centrifuged at 4000 rpm for 5 min and the clots were removed if any. The pH will be adjusted to 7.4±0.1 if required. 1 mM stock solution was prepared with DMSO. Propantheline (positive control) was prepared by making a 100 μM working solution by diluting 5 μL of the stock solution (10 mM) with 495 μL ultra pure water. 100 μM working solutions of test compounds were made up by diluting 10 μL of the stock solution (1 mM) with 90 μL DMSO. 98 μL of blank plasma was spiked with 2 μL of dosing solution (100 μM) to achieve 2 μM of the final concentration in duplicate and samples were incubated at 37° C. in a water bath. At each time point (0, 1, 2, 4, 6 and 24 hr), 400 μL of 200 ng/mL tolbutamide and labetalol in 100% MeOH was added and mixed thoroughly to precipitate proteins. Sample plates were centrifuged at 4,000 rpm for 15 min. An aliquot of supernatant (150 μL) was transferred from each well before submitting for LC-MS/MS analysis.
(§2) The % remaining test compound after incubation in plasma was calculated using following equation: Remaining=100×(PAR at appointed incubation time/PAR at T0 time)
(§3) where PAR is the peak area ratio of analyte versus internal standard (IS).
(§4) The appointed incubation time points are T0 (0 hr), Tn (n=0, 1, 2, 4, 6, 24 hr). The half-life (T½) was calculated from a log linear plot of concentration versus time.
(§5) When the % remaining value at the maximal incubation time, which was 24 hr in this study, was higher than 75%, it is considered to be within the acceptable experimental variation.

in vitro [6] = settings: human, plasma, pH 7.4
Method: as §1, §2, §3, §4, §5

in vitro [7] = settings: mouse, plasma
in vitro [8] = settings: rat, plasma
in vitro [9] = settings: cynomolgus monkey, plasma
in vitro [10] = settings: human, plasma

## CC[C@H](C)[C@@H]([C@@H](CC(=O)N1CCC[C@H]1[C@H](OC)[C@@H](C)C(=O)N[C@H](C)[C@@H](O)c1ccccc1)OC)N(C)C(=O)[C@@H](NC(=O)[C@H](C(C)C)N(C)C(=O)OCc1ccc(NC(=O)[C@H](CCCNC(N)=O)NC(=O)[C@H](Cc2cccc3ccccc23)NC(=O)[C@H](CCC(=O)O)NC(=O)Cn2cc(CCC(=O)NCCC(=O)N(C)CC(=O)N(C)CC(=O)N(C)CC(=O)N(C)CC(=O)N(C)CC(=O)N(C)CC(=O)N(C)CC(=O)N(C)CC(=O)N(C)CC(=O)N(C)CC(=O)N[C@@H](C)C(=O)N[C@H]3CN(C)Cc4cc5cc(c4)CN(C)C[C@@H](C(N)=O)NC(=O)[C@H](C(C)(C)C)NC(=O)[C@H](CC(=O)O)NC(=O)[C@H](Cc4ccc(O)cc4)NC(=O)[C@H](Cc4ccccc4)NC(=O)[C@H](CC(=O)O)NC(=O)[C@H](CCC(=O)O)NC(=O)[C@H](CSC5)NC(=O)[C@@H](C)NC(=O)[C@H](Cc4cccc5ccccc45)NC(=O)[C@H](CCC(=O)O)NC(=O)[C@H](CC(N)=O)NC(=O)[C@@H](C)NC3=O)nn2)cc1)C(C)C [BCY10984, MMAE-PAB-(Cit-1Nal-Glu)-BCY3900]
[1]; pH 7.4, Mouse plasma t1/2 (EDTA), EDTA anticoagulant
  half-life at 2 μM: > 57.8 h
[1]; pH 7.4, Mouse plasma t1/2 (Herparin), heparin anticoagulant
  half-life at 2 μM: 47.5 h
Cathepsin B; 0 h
  % Parent remaining after incubation with CatB, 0 h: 100%
Cathepsin B; 1 h
  % Parent remaining after incubation with CatB, 1 h: 94.498%
Cathepsin B; 2 h
  % Parent remaining after incubation with CatB, 2 h: 83.5%
Cathepsin B; 4 h
  % Parent remaining after incubation with CatB, 4 h: 39.2%
Cathepsin B; 6 h
  % Parent remaining after incubation with CatB, 6 h: 33.4%
Cathepsin B; 24 h
  % Parent remaining after incubation with CatB, 24 h: 32.5%
Cathepsin B; read-out: CatB t1/2 (converted)
  half-life at 40 μM: 3.3 h
[2]
  AUC ratio: 0.0000936
HT1080 cells
  Body weights of the animals: not affected
In vivo [3]
  C0: 112 µg/mL
  Vd: 0.09 L/kg
  clearance: 0.2 mL/min/kg
  half-life: 7.55 h
In vivo [4]
  half-life: 1.83 h
In vitro [5]
  half-life at 2 μM: 53.8 h
In vitro [6]
  half-life at 2 μM: > 57.8 h
In vitro [7]
  fraction unbound: 0.002
In vitro [8]; PPB (% Unbound), rat (Table 9)
  fraction unbound: 0.04
In vitro [8]; Plasma protein binding (% Unbound) Rat
  fraction unbound: 0.035
In vitro [9]
  fraction unbound: 0.092
In vitro [10]
  fraction unbound: 0.031
